From article PMC4466140, “Evolution of the SH3 Domain Specificity Landscape in Yeasts” (PLoS ONE, 2015)

Legend:
Assay in all cases: peptide or protein array; SPOT: 15-mer peptides on cellulose (CAPE) membrane; GST-SH3 domains at 10 μg/ml overnight at 4°C in blocking buffer (TBS, 50 mM Tris/HCl pH 7.6, 150 mM NaCl, Blocking Buffer, 0.15 M sucrose); detected with anti-GST antibody and HRP conjugate
Settings in all cases: both partners purified
[1] = biological target: T1, GST-tagged C. albicans Rvs167 SH3 domain (C. albicans, UniProt Q59LF3 382-440)
T1 construct: Rvs167 of Candida albicans, SH3 domain; also called CaRvs167; source: E. coli BL21(DE3), purified (glutathione Sepharose 4B); not shown: GST, N-terminal, kept
T1 sequence: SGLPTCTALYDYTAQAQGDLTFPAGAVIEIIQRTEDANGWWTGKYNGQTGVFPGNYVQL

[2] = biological target: T2, GST-tagged S. pombe Rvs167 (Hob1) SH3 domain (S. pombe, UniProt O74352 407-466)
T2 construct: Rvs167 homolog of S. pombe, called Hob1, SH3 domain; also called SpRvs167; source: E. coli BL21(DE3), purified (glutathione Sepharose 4B); not shown: GST, N-terminal, kept
T2 sequence (looked up): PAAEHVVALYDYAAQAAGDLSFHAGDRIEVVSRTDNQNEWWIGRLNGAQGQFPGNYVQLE

[3] = biological target: T3, GST-tagged S. cerevisiae Rvs167 SH3 domain (S. cerevisiae, UniProt P39743 421-482)
T3 construct: Rvs167, S. cerevisiae, SH3 domain; also called ScRvs167; source: E. coli BL21(DE3), purified (glutathione Sepharose 4B); not shown: GST, N-terminal, kept

Measured: binding result

T3 sequence (P39743 421-482): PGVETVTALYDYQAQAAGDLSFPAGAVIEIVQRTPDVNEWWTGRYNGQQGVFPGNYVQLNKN

B1: Type II peptide #66 (SPOT membrane) (peptide)
peptide: SSSSTPPTLPPRRIE
notes: 15-mer of the SH3-SPOT library mined from the S. cerevisiae proteome; In the SPOT library all cysteines were replaced by serines; source: synthetic peptide, SPOT synthesis on cellulose (CAPE) membrane
binds: all assays above
